Reference: patent publication US20030176331A1

Target: high molecular weight glycoprotein gp240 on melanoma cells (human) (UniProt Q6UVK1)
Experiment: cell-based or functional assay

UniProt Q6UVK1, sequence (Q6UVK1 30-2322): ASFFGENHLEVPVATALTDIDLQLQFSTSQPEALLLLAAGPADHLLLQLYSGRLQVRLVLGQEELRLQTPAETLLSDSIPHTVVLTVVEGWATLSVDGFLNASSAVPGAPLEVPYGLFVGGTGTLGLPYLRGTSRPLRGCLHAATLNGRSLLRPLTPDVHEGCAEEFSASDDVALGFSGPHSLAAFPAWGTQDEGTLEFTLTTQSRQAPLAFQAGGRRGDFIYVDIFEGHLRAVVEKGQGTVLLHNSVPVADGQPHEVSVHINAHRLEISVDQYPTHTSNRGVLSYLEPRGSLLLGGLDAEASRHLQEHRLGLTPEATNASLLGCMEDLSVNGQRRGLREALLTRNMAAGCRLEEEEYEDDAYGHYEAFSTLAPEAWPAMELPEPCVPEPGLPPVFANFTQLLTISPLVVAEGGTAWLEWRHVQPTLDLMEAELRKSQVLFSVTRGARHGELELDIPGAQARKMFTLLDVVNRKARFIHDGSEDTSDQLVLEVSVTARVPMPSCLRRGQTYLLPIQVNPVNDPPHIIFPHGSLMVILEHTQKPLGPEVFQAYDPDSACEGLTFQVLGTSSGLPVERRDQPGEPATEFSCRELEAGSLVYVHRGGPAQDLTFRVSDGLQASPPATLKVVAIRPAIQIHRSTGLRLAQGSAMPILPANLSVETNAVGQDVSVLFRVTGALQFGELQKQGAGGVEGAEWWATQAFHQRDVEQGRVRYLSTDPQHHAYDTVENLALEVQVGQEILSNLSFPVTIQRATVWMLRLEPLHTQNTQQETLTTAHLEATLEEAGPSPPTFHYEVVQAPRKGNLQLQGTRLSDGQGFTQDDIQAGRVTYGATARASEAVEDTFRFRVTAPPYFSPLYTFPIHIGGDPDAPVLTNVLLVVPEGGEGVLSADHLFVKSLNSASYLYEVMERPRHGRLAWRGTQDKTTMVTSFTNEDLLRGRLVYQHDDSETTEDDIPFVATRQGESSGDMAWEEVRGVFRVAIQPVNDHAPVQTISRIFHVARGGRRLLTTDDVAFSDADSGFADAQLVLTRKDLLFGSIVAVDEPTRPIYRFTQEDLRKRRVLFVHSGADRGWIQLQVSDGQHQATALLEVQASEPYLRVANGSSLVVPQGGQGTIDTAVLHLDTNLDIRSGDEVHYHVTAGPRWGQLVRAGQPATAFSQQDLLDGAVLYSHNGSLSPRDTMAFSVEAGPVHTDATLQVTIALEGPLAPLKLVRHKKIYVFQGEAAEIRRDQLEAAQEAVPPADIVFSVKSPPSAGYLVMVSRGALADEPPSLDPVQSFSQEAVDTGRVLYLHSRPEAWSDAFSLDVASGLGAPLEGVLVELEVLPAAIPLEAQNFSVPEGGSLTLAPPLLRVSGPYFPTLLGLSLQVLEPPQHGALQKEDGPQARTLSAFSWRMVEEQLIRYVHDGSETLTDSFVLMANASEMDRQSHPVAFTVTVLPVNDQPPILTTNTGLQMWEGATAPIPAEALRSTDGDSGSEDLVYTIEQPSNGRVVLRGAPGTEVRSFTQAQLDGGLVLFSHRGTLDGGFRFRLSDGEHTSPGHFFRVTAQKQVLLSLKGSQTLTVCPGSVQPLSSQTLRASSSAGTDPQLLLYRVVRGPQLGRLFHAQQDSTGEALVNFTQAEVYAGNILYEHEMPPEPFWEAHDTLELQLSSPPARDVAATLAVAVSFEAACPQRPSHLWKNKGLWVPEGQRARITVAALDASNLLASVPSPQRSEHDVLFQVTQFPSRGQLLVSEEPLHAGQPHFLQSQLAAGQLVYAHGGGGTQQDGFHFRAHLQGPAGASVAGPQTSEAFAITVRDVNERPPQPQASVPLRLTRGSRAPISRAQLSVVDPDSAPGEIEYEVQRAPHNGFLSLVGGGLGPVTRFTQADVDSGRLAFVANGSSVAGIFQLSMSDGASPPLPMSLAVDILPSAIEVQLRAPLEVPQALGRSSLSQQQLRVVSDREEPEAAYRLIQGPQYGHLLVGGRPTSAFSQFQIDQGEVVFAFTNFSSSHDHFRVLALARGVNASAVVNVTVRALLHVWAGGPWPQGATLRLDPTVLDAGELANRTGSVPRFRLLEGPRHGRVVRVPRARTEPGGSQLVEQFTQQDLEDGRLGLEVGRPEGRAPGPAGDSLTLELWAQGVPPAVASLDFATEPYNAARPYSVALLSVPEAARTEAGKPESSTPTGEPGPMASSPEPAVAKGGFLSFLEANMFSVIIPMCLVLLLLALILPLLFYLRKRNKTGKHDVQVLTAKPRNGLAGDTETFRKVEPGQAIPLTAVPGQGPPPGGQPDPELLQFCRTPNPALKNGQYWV

IgG ZME-018-gelonin chemical conjugate
IC50, 72 h in vitro cytotoxicity on antigen-positive A375 human melanoma cells: 8 nM

scfvMEL/rGel fusion construct
IC50, 72 h in vitro cytotoxicity on antigen-positive A375 human melanoma cells: 8 nM
